Measured values reported in publication PMC3182822.

Target: trypsin from bovine pancreas (bovine)
Assay: enzyme inhibition kinetics

Sequence of trypsin from bovine pancreas (bovine) (P00760 24-246): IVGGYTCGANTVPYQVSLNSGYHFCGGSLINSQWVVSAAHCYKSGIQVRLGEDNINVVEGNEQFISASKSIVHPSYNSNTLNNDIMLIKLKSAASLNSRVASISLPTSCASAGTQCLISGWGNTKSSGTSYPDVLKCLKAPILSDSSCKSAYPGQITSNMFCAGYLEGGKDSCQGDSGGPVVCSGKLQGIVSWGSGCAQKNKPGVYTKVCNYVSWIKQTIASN

Ki: 57 µM
Substance: ovomucoid trypsin inhibitor (from UniProt P01005 25-210) (natural protein)
